Test [1] addresses human PD-L1 protein (purchased from AcroBiosystems) (human) (UniProt Q9NZQ7). Nature of the test: BLI (ForteBio), antibody on AHQ sensor, 100 nM PD-L1 antigen, 1:1 model. A general note: Biolayer interferometry detects binding as a change in optical thickness at a sensor tip.
Test [2] concerns the target human PD-L1 on CHO cells (CHO-hPD-L1 cells) (human) (UniProt Q9NZQ7). The test is described as follows: flow cytometry on CHO-hPD-L1 cells, PE anti-human IgG-Fc, MFI; table under the plot, unit from the concentration axis. (Flow cytometry measures light scatter and fluorescence of single cells or particles in a stream.)
The target in test [3] is human PD-L1 protein (purchased from AcroBiosystems) (human) (UniProt Q9NZQ7). The test is described as follows: BLI (ForteBio), antibody on AHQ sensor, 100 nM PD-L1 antigen, 1:1 model. The source holds these as a separate data set.
The target is the same in test [4]. The test is described as follows: flow cytometry blocking assay: antibody pre-incubated with biotinylated human PD-L1 protein (1 ug/ml), binding of PD-L1 to CHO-hPD-1 cells read as MFI; falling curve, the table under the plot calls the half-maximal concentration EC50; unit from the concentration axis.
Test [5] deals with T1, human PD-1 on CHO cells (CHO-hPD-1 cells) (human, UniProt Q15116 25-288).
T1 construct: whole, on cells
The test is described as follows: flow cytometry: biotinylated human PD-L2 protein (1 ug/ml) on CHO-hPD-1 cells, no antibody. The procedure: CHO cells overexpressing human PD-1 (CHO-hPD-1 cells) were generated by transfection of the pCHO1.0 vector (purchased from Invitrogen™) cloning human PD-1 cDNA (purchased from Sino Biological). The expanded CHO-hPD-1 cells were adjusted to a cell density of 2×10⁶ cells/ml, and were added to 96-well flow plate at 100 μl/well, and centrifuged for later use. The purified mutant sample was diluted with PBS and diluted 3 times from […] for 12 points. […] The co-incubation sample was added to the above-mentioned 96-well flow plate with cells 100 μl/well, incubated at 4° C. for 30 min, and washed twice with PBS. APC goat anti-mouse IgG (minimum×reactive) antibody diluted 100 times with PBS (purchased from Biolegend®) was added at 100 μl/well, incubated at 4° C. for 30 min, and washed twice with PBS. PBS was added at 100 μl/well to resuspend cells, and detection was performed on a CytoFlex (Bechman) flow cytometer and the corresponding MFI was calculated.

Read-outs that look alike come from different tables or passages of the source.

The record followed here is US12600782 (BIOTHEUS, dated 2026).

human PD-L1 protein (purchased from AcroBiosystems) (human), sequence (Q9NZQ7 19-238 limits assumed): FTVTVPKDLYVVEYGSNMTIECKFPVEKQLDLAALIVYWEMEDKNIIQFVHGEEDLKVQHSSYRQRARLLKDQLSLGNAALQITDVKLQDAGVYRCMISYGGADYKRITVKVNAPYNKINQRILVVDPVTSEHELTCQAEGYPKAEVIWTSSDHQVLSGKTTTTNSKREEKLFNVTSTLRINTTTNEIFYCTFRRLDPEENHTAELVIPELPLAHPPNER
human PD-L1 on CHO cells (CHO-hPD-L1 cells) (human), sequence (Q9NZQ7 19-290): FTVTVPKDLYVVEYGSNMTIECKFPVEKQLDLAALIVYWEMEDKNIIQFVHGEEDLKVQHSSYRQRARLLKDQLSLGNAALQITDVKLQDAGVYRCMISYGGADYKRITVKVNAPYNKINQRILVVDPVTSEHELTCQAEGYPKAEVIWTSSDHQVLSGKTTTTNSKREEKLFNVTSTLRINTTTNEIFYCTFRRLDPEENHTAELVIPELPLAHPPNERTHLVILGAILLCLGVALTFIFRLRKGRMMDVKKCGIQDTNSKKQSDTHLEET
T1 sequence (Q15116 25-288): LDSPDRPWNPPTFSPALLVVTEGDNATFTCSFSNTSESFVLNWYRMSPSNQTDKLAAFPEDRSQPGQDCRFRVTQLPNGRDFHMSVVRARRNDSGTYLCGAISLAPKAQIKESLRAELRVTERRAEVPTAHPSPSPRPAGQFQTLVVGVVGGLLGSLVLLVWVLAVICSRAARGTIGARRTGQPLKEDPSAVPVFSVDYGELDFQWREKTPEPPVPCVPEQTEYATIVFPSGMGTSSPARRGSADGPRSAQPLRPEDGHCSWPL

With control antibody ATE, the equilibrium dissociation constant (Kd) in test [1] turned out to be 1.3 nM; in test [3], 1.16 nM. Further, the results for the EC50 in test [2] and in test [4] were 4.53 nM and 6.31 nM, respectively.

B1: human PD-L2 protein (purchased from AcroBiosystems) (ligand, UniProt Q9BQ51 20-219, looked up)
chain: LFTVTVPKELYIIEHGSNVTLECNFDTGSHVNLGAITASLQKVENDTSPHRERATLLEEQLPLGKASFHIPQVQVRDEGQYQCIIIYGVAWDYKYLTLKVKASYRKINTHILKVPETDEVELTCQATGYPLAEVSWPNVSVPANTSHSRTPEGLYQVTSVLRLKPPPGRNFSCVFWNTHVRELTLASIDLQSQMEPRTHP
modifications: biotinylated in the blocking assays
notes: Bought soluble protein; also called PD-L2 antigen; biotinylated human PD-L2 protein
Regarding B1, the binding result in test [5] is reported as “binds”.

As a reminder, the Kd is the constant that tells how readily two partners part at equilibrium. A high value points to a looser complex. The term EC50 denotes the concentration at which the effect is half-maximal. The low end stands for an effect from little substance, the high end for a need for much substance.
